Measured values reported in patent US20260248972A1, “DUAL RECEPTOR TARGETING RADIOLIGANDS AND USES THEREOF RELATED APPLICATIONS” (priority 2022, published 2026).
pIC50: −log10 of the molar value. Where two headings read alike, the source gives them in different places.

Assays:
[1] = in vivo; settings: BALB/c nude, mouse, in vivo, iv, total radioactivity
How it was run: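 Compounds labelled with ^177Lu in 0.5 M NaOAc pH 4.5 at 95° C for 15 min, then used directly or diluted in PBS with 3 mg/mL ascorbate. BALB/c nude mice bore subcutaneous AR42J flank xenografts (0.05-0.50 g). Organs excised at 4, 24 and 72 h post-injection and γ-counted for % ID and % ID/g.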

[2] = biological target: T1, SSTR2 (Rattus norvegicus, UniProt P30680); test: Competitive cell-binding assay on AR42J cells with 125I-C1 as competitive ligand
T1 construct: host or cells: AR42J cells
How it was run: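 Rat AR42J cells (1~3×10^6 cells/mL) in RPMI-1640 with 0.25% BSA incubated with 125I-C1 or 125I-C3 (0.02 μCi/well) plus test compound (0-10000 nM) for 1 h at 37° C., n=3. Unbound ligand removed by filtration; bound radioactivity γ-counted; IC50 by nonlinear regression.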

[3] = biological target: T2, CCK2R (Rattus norvegicus, UniProt P30553); test: Competitive cell-binding assay on AR42J cells with 125I-C3 as competitive ligand
T2 construct: host or cells: AR42J cells
T2 sequence (P30553 1-452): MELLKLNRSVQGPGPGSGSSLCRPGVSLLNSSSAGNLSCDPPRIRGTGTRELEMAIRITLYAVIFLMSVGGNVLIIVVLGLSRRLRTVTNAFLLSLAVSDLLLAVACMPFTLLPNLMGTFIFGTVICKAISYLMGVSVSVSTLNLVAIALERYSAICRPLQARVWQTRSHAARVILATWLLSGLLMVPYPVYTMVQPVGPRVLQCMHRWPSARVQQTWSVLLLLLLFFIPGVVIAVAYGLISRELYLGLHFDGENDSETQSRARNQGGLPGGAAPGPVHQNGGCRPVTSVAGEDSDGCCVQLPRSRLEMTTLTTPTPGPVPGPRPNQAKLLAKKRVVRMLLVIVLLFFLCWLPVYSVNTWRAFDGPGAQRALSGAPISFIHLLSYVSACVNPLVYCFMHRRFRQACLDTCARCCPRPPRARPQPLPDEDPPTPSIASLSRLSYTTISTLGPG
Experimental: AR42J cells (ATCC) were maintained in RPMI-1640 medium (Gibco) supplemented with 15% fetal bovine serum (Gibco) and 1% penicillin-streptomycin (BI) at 37° C. in a humidified incubator with 5% CO2. The culture medium was replaced with fresh medium every 2-3 days. Experiments were performed with cells at 70-80% confluence.
Binding Affinity Tested by Using ^125I-Labeled Competitive Ligands.
The binding affinities of test compounds were determined by a competitive cell-binding assay using ^125I-C1 and ^125I-C3 as the competitive ligand. The suspended AR42J cells at a density of 1~3×10^6 cells/mL in binding buffer (RPMI-1640 medium supplemented with 0.25% bovine serum albumin) were transferred to a MultiScreen-DV Filter Plate (Millipore) with 100 μL per well except the blank group where the binding buffer was used instead. The cells were then incubated with ^125I-C1 and ^125I-C3 (0.02 μCi/well) in the presence of increasing concentrations (0-10000 nM) of test compounds at 37° C. for 1 h (n=3). The final volume in each well was maintained at 200 μL and insufficient volume was adjusted by the binding buffer. After the 1 h incubation, unbound ^125I-competitive ligands were removed by filtration using a Multiscreen vacuum manifold (Millipore) followed by rinses with the binding buffer (3 times). The filters were collected, and their radioactivity were individually measured by γ counter (2480 WIZARD2, PerkinElmer). The best-fit IC50value (inhibitory concentration when 50% of the bound ^125I-C1 and ^125l I-C3 on cells were displaced) of test compounds were calculated by fitting the data with nonlinear regression using GraphPad Prism 8.0.1.

[4] = AR42J cells, 125I-C1 competitive ligand, 37° C. 1 h, read-out: SSTR2/IC50
[5] = AR42J cells, 125I-C3 competitive ligand, 37° C. 1 h, read-out: CCK2R/IC50

T1 sequence (P30680 whole entry): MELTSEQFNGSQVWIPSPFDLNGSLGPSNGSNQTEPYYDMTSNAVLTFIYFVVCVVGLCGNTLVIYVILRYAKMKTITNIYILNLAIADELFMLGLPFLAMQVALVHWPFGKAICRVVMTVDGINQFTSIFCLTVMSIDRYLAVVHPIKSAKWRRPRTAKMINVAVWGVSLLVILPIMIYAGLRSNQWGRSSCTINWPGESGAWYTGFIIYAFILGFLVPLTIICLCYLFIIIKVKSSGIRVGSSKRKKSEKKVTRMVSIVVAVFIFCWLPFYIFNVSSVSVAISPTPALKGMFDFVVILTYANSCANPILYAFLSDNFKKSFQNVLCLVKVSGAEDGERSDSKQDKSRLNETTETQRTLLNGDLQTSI

Structure (SMILES) | Relative Binding Affinity SSTR2 ([2]; based on mean IC50, C-1 = 1.00) | Relative Binding Affinity CCK2R ([3]; based on mean IC50, C-2 = 1.00) | pIC50 [2, 4] | pIC50 [3, 5] | tissue to tissue ratio at 24 h ([1]; T/K Tumor/Kidney ratio) | tissue to tissue ratio at 24 h ([1]; T/L Tumor/Liver ratio) | tissue to tissue ratio at 24 h ([1]; T/P Tumor/Pancreas ratio) | tissue to tissue ratio at 24 h ([1]; T/Sp Tumor/Spleen ratio) | tissue to tissue ratio at 24 h ([1]; T/St Tumor/Stomach ratio) | tissue uptake at 24 h ([1]; uptake Kidney) [%ID/g] | tissue uptake at 24 h ([1]; uptake Liver) [%ID/g] | tissue uptake at 24 h ([1]; uptake Pancreas) [%ID/g] | tissue uptake at 24 h ([1]; uptake Spleen) [%ID/g] | tissue uptake at 24 h ([1]; uptake Stomach) [%ID/g] | tissue uptake at 24 h ([1]; uptake Tumor) [%ID/g] | other results
C[C@@H](O)[C@H](NC(=O)[C@@H]1CSSC[C@H](NC(=O)[C@@H](Cc2ccccc2)NC(=O)COCCOCCNC(=O)[C@H](CCCCNC(=O)CCC(C(=O)O)N2CCN(CC(=O)O)CCN(CC(=O)O)CCN(CC(=O)O)CC2)NC(=O)COCCOCCNC(=O)CC[C@H](NC(=O)CC[C@H](NC(=O)c2cccc(NC(=O)N[C@@H]3CN(C4CCCCC4)c4ccccc4N(CC(=O)C(C)(C)C)C3=O)c2)C(=O)O)C(=O)O)C(=O)N[C@@H](Cc2ccc(O)cc2)C(=O)N[C@H](Cc2c[nH]c3ccccc23)C(=O)N[C@@H](CCCCN)C(=O)N[C@@H]([C@@H](C)O)C(=O)N1)C(=O)O (some centres unmarked) [Compound I-13, (Z360)- gE- gE- OEG- K(DOTAGA)- OEG- f[CYwKTC]T- OH] | 0.23 | 10.8 | 7.91 | 8.80 | 0.3 | 12 | 12 | 32 | 6.8 | 46.7 | 1.21 | 1.21 | 0.47 | 2.19 | 14.8 | –
C[C@@H](O)[C@H](NC(=O)[C@@H]1CSSC[C@H](NC(=O)[C@@H](Cc2ccccc2)NC(=O)[C@H](CCCCNC(=O)COCCOCCNC(=O)c2cccc(NC(=O)N[C@@H]3CN(C4CCCCC4)c4ccccc4N(CC(=O)C(C)(C)C)C3=O)c2)NC(=O)CN2CCN(CC(=O)O)CCN(CC(=O)O)CCN(CC(=O)O)CC2)C(=O)N[C@@H](Cc2ccc(O)cc2)C(=O)N[C@H](Cc2c[nH]c3ccccc23)C(=O)N[C@@H](CCCCN)C(=O)N[C@@H]([C@@H](C)O)C(=O)N1)C(=O)O [Compound I-36, DOTA-K(-OEG-Z360)-f[CYwKTC]T-OH] | – | – | – | – | – | – | – | – | – | – | – | – | – | – | – | tissue to tissue ratio at 24 h ([1]; T/K Tumor/Kidney ratio, 177Lu-labeled, 24 hours after dosing): 2.9; tissue to tissue ratio at 24 h ([1]; T/L Tumor/Liver ratio, 177Lu-labeled, 24 hours after dosing): 4.3; tissue to tissue ratio at 24 h ([1]; T/P Tumor/Pancreas ratio, 177Lu-labeled, 24 hours after dosing): 13; tissue to tissue ratio at 24 h ([1]; T/Sp Tumor/Spleen ratio, 177Lu-labeled, 24 hours after dosing): 36; tissue to tissue ratio at 24 h ([1]; T/St Tumor/Stomach ratio, 177Lu-labeled, 24 hours after dosing): 11; tissue uptake at 24 h ([1]; uptake Kidney, 177Lu-labeled, 24 hours after dosing (Table 5)): 7.4 %ID/g; tissue uptake at 24 h ([1]; uptake Liver, 177Lu-labeled, 24 hours after dosing (Table 5)): 5 %ID/g; tissue uptake at 24 h ([1]; uptake Pancreas, 177Lu-labeled, 24 hours after dosing (Table 5)): 1.6 %ID/g; tissue uptake at 24 h ([1]; uptake Spleen, 177Lu-labeled, 24 hours after dosing (Table 5)): 0.6 %ID/g; tissue uptake at 24 h ([1]; uptake Stomach, 177Lu-labeled, 24 hours after dosing (Table 5)): 2 %ID/g; tissue uptake at 24 h ([1]; uptake Tumor, 177Lu-labeled, 24 hours after dosing (Table 5)): 21.6 %ID/g; pIC50 [2]: 8.80; Relative Binding Affinity SSTR2 [2]: 1.76; pIC50 [3]: 8.38; Relative Binding Affinity CCK2R [3]: 4.0
C[C@@H](O)[C@H](NC(=O)[C@@H]1CSSC[C@H](NC(=O)[C@@H](Cc2ccccc2)NC(=O)CC[C@H](NC(=O)[C@H](CCCCNC(=O)CC[C@H](NC(=O)CNC(=O)c2cccc(NC(=O)N[C@@H]3CN(C4CCCCC4)c4ccccc4N(CC(=O)C(C)(C)C)C3=O)c2)C(=O)O)NC(=O)CC[C@H](NC(=O)CN2CCN(CC(=O)O)CCN(CC(=O)O)CCN(CC(=O)O)CC2)C(=O)O)C(=O)O)C(=O)N[C@@H](Cc2ccc(O)cc2)C(=O)N[C@H](Cc2c[nH]c3ccccc23)C(=O)N[C@@H](CCCCN)C(=O)N[C@@H]([C@@H](C)O)C(=O)N1)C(=O)O [Compound I-9, DOTA-gE-K(-gE-G-Z360)-gE-f[CYwKTC]T-OH] | 2.85 | 13.5 | – | – | 0.3 | 8.3 | 3.8 | 11 | 3.4 | 42.2 | 1.31 | 2.89 | 1.03 | 3.22 | 10.9 | –

Further lines, with some results ahead:

Relative Binding Affinity SSTR2 ([2]; based on mean IC50, C-1 = 1.00) | Relative Binding Affinity CCK2R ([3]; based on mean IC50, C-2 = 1.00) | pIC50 [2, 4] | pIC50 [3, 5] | Structure (SMILES) | tissue to tissue ratio at 24 h ([1]; T/K Tumor/Kidney ratio) | tissue to tissue ratio at 24 h ([1]; T/L Tumor/Liver ratio) | tissue to tissue ratio at 24 h ([1]; T/P Tumor/Pancreas ratio) | tissue to tissue ratio at 24 h ([1]; T/Sp Tumor/Spleen ratio) | tissue to tissue ratio at 24 h ([1]; T/St Tumor/Stomach ratio) | tissue uptake at 24 h ([1]; uptake Kidney) [%ID/g] | tissue uptake at 24 h ([1]; uptake Liver) [%ID/g] | tissue uptake at 24 h ([1]; uptake Pancreas) [%ID/g] | tissue uptake at 24 h ([1]; uptake Spleen) [%ID/g] | tissue uptake at 24 h ([1]; uptake Stomach) [%ID/g] | tissue uptake at 24 h ([1]; uptake Tumor) [%ID/g] | other results
0.54 | 115 | – | – | C[C@@H](O)[C@H](NC(=O)[C@@H]1CSSC[C@H](NC(=O)[C@@H](Cc2ccccc2)NC(=O)[C@H](CCCCNC(=O)COCCOCCNC(=O)COCCOCCNC(=O)c2cccc(NC(=O)N[C@@H]3CN(C4CCCCC4)c4ccccc4N(CC(=O)C(C)(C)C)C3=O)c2)NC(=O)CN2CCN(CC(=O)O)CCN(CC(=O)O)CCN(CC(=O)O)CC2)C(=O)N[C@@H](Cc2ccc(O)cc2)C(=O)N[C@H](Cc2c[nH]c3ccccc23)C(=O)N[C@@H](CCCCN)C(=O)N[C@@H]([C@@H](C)O)C(=O)N1)C(=O)O [Compound I-42, DOTA-K(-OEG-OEG-Z360)-f]CYwKTC]T-OH] | 1.1 | 3.3 | 12 | 62 | 8.8 | 17.8 | 5.6 | 1.6 | 0.3 | 2.1 | 18.7 | –
7.67 | 3.4 | 9.44 | 8.31 | C[C@@H](O)[C@H](NC(=O)[C@@H]1CSSC[C@H](NC(=O)[C@@H](Cc2ccccc2)NC(=O)COCCOCCNC(=O)COCCOCCNC(=O)[C@H](CCCCNC(=O)c2cccc(NC(=O)N[C@@H]3CN(C4CCCCC4)c4ccccc4N(CC(=O)C(C)(C)C)C3=O)c2)NC(=O)CN2CCN(CC(=O)O)CCN(CC(=O)O)CCN(CC(=O)O)CC2)C(=O)N[C@@H](Cc2ccc(O)cc2)C(=O)N[C@H](Cc2c[nH]c3ccccc23)C(=O)N[C@@H](CCCCN)C(=O)N[C@@H]([C@@H](C)O)C(=O)N1)C(=O)O [Compound I-39, DOTA-K(Z360)-OEG-OEG-f[CYwKTC]T-OH] | 2.3 | 9.9 | 29 | 89 | 5.9 | 12 | 2.78 | 0.94 | 0.31 | 4.63 | 27.5 | –
